Patent US12006368 (SURROZEN OPERATING, dated 2024)
Changes are numbered by the printed parent chain.

Assays:
[1] = target: hFzd1 CRD-Xtal (hFzd1_Q9UP38_101-230) (human, UniProt Q9UP38 101-230); assay: size-exclusion chromatography of the Fzd CRD_Xtal:Fab mixture
Procedure: (§1) Purfied Fzd CRD_Xtal and Fab binders were mixed at 1.1:1 molar ratio (little excess of the smaller molecular weight protein), and incubated with carboxy-peptidase A and B at a w/w ratio of 100:1 for over-night at 4° C. Complex formation was confirmed by observation of a single-major peak on SuperdexS200 Increase (10/300 GL) column pre-equilibrated in HBS. Fractions containing complexes were further checked by SDS-PAGE, and concentrated to a range from 10 to 55 mg/mL for crystallization screens. Initial crystallization screen, using commercially available MCSG1, MCSG2, MCSG3, MCSG4, PACT (Molecular Dimensions), PEGs I, and PEGs II (Qiagen) screen, and optimization by grid-screens or microseed matrix screen [MMS; Microseed matrix screening for optimization in protein crystallization: what have we learned? D'Arcy, A., Bergfors, T., Cowan-Jacob S. W., and Marshd, M. Acta Cryst. F70, 1117-1126 (2014)]. were performed using Mosquito (TTP LabTech) liquid handler, and equilibrated at 18° C. inside an EchoTherm incubator (Torrey Pines Scientific). 96-well plate crystal screening experiments were periodically monitored manually via a DiscoveryV20 stereomicroscope (Zeiss), and crystals were frozen for data collection by plunging into liquid nitrogen in the presence of various cryo-protectants (typically 15 to 30% v/v of glycerol or ethyleneglycol). X-ray diffraction datasets were collected at the Berkeley Center for Structural Biology at the Advanced Light Source (ALS), Berkeley CA, and processed with XDS [Kabsch, W. XDS. Acta Cryst. D66, 125-132 (2010)], and xdsme [Legrand, P. XDSME: XDS Made Easier (2017) GitHub repository, https://github-.com/legrandp/xdsme DOI 10.5281/zenodo.837885]. programs. Structure of Fzd:Fab complexes were determined by molecular replacement method using Phaser with constant and variable domains of related Fabs are template [Phaser crystallographic software. A. J. McCoy, R. W. Grosse-Kunstleve, P. D. Adams, M. D. Winn, L. C. Storoni, and R. J. Read. J Appl Crystallogr 40, 658-674 (2007)], followed by refinement and validation by MolProbity as implemented in Phenix [PHENIX: a comprehensive Python-based system for macromolecular structure solution.

[2] = target: T1, hFzd5 CRD-Xtal (hFzd5_Q13467_27-152) (human, UniProt Q13467 27-152); assay: as above
T1 construct: complex incubated with carboxypeptidase A and B before crystallisation
T1 sequence: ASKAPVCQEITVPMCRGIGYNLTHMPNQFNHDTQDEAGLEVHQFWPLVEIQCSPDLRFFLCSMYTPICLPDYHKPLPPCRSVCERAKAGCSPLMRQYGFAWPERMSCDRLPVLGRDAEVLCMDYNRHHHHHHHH
Procedure: as §1

Fzd5 = target: T2, Fzd5 (UniProt Q13467 27-152, limits assumed); assay: phage ELISA on immobilised antigen
T2 construct: immobilised target antigen of the phage ELISA and the Fzd named in specificity sentences; also called Frizzled 5; Fz5
T2 sequence (looked up): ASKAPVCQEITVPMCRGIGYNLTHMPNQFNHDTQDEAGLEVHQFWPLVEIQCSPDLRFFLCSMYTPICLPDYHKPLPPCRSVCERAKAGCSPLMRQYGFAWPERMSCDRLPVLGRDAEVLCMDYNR
Procedure: (§2) Detection of bound phage was determined […] by turnover of TMB substrate (Thermo Fisher Scientific, Waltham, MA) at […] by anti-M13-HRP antibody (GE Healthcare, Pittsburgh, PA). Clones were identified as binding to a Fzd receptor when the fold OD 450 nm over background was greater than a threshold level.

[3] = target: T3, hFzd3 CRD-Xtal (hFzd3_Q9NPG1_23-148) (human, UniProt Q9NPG1 23-148); assay: size-exclusion chromatography of the Fzd CRD_Xtal:Fab mixture
T3 construct: complex incubated with carboxypeptidase A and B before crystallisation
T3 sequence: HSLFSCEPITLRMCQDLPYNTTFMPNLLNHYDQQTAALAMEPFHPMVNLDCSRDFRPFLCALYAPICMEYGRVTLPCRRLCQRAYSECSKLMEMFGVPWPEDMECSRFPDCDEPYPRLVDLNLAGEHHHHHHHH
Procedure: as §1

Frizzled 6 = target: T4, Frizzled 6 (human, UniProt O60353 19-145, limits assumed); assay: phage ELISA on immobilized antigen (initial binding)
T4 construct: the antigen of the phage ELISA is only called 'target antigen'; also called Fzd6; Fz6
T4 sequence (looked up): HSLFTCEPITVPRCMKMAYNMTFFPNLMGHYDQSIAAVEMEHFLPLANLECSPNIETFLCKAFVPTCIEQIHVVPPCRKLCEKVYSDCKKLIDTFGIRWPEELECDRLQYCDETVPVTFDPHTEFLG
Procedure: as §2

Frizzled 3 = target: T5, Frizzled 3 (human, UniProt Q9NPG1 23-148, limits assumed); assay: phage ELISA on immobilised antigen (initial binding)
T5 construct: Target antigen immobilised on plates in the phage ELISA; also called Fzd3; Fz3
T5 sequence (looked up): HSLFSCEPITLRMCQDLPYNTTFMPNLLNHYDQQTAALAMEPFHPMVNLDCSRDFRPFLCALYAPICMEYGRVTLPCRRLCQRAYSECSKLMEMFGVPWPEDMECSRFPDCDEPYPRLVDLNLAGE
Procedure: as §2

[4] = target: T6, Fzd2 cysteine rich domain (CRD), C-terminally biotinylated (human, UniProt Q14332 24-155); assay: BLI; **=Kd 100-2000 nM
Procedure: (§3) Binding kinetics of antibody fragments to a variety of Fzd cysteine rich domain (CRD) protein targets (Fzd1, Fzd2, Fzd3, Fzd4, Fzd5, Fzd6, Fzd7, Fzd8, Fzd9 and/or Fzd10 CRDs) was determined by bio-layer interferometry (BLI) using Octet Red 96 (PALL ForteBio, Fremont, CA) instruments at 30° C., 1000 rpm with streptavidin (SA) biosensors. C-terminal biotinylated Fzd CRD recombinant protein was diluted to 20 nM in the running buffer (PBS, 0.05% Tween-20, 0.5% BSA, pH 7.2) and captured to the SA biosensor until coupling length reached 0.2 nm. Following capture of the Fzd CRD, the SA biosensor with captured biotinylated-Fzd CRD was dipped into wells containing the relevant antibody fragment at […] (0, 1.37, 4.12, 12.4, 37, 111.1, 333.3, 1000 nM) in running buffer, plus a well with only running buffer as a reference channel. […] was determined by global fitting, 1:1 binding model according to manufacturer recommended settings.
(§4) Table 1B provides clone IDs, the sequence identifier number of the antibody heavy chain fragment and/or light chain fragment, if present, for illustrative clones. In certain embodiments, the Fzd binding domain is an Fab or was derived from an Fab, so the heavy chain of Table 1B includes VH and CH1 sequence, but not CH2 or CH3 sequences. In certain embodiments, the Fzd binding domain is a VHH or sdAb® or was derived from a VHH or sdAb, so Table 1B includes the VHH domain. […] The Kd values were determined by BLI as described above. Blank entries denote that the binding to the specific Fzd receptor has not yet been determined. The entry of "n.b." indicates no binding.

[5] = target: T7, Fzd1 cysteine rich domain (CRD), C-terminally biotinylated (human, UniProt Q9UP38 101-230); assay: BLI; *=Kd <100 nM
Procedure: as §3, §4

[6] = target: T8, Fzd7 cysteine rich domain (CRD), C-terminally biotinylated (human, UniProt O75084 36-165); assay: BLI; *=Kd <100 nM
Procedure: as §3, §4

[7] = target: T6, Fzd2 cysteine rich domain (CRD), …; assay: BLI; *=Kd <100 nM
Procedure: as §3, §4

[8] = target: T7, Fzd1 cysteine rich domain (CRD), …; assay: BLI; *=Kd <=100 nM
Procedure: as §3
(§5) One antibody fragment, clone 001S-A04, was selected for alanine-scanning mutagenesis of CDRs, and the respective Fzd1 binding affinities of the various mutants were determined by Octet BLI as described in Example 1.

[9] = target: T7, Fzd1 cysteine rich domain (CRD), …; assay: BLI
Procedure: as §3, §5

[10] = target: T7, Fzd1 cysteine rich domain (CRD), …; assay: summary in Table 3; method not given there
[11] = target: T8, Fzd7 cysteine rich domain (CRD), …; assay: summary in Table 3; method not given there

B1: R2M9 (003S-E07) Fab (Fab, V domains shown)
VH: QVQLVQSGAEVKKPGSSVKVSCKASGYTFTNNFMHWVRQAPGQGLEWMGWINPNSGGTKYAQKFQGRVTITADESTSTAYMELSSLRSEDTAVYYCARSVGEVGATMLGIGVWYWFDPWGQGTLVTVSS
VL: not shown
notes: heavy chain with C-terminal hexa-histidine tag; carboxypeptidase A and B treated in the complex
B1: binds [1].

B2: 004S-E05 Fab (Fab, V domains shown)
VH: EVQLVESGGGLVQPGGSLRLSCAASGFTFSTYEMNWVRQAPGKGLEWVSGVSWNGSRTHYVDSVKGRFTISRDNSKNTLYLQLNSLRAEDTAVYYCARGQSEKWWSGLYGMDVWGQGTTVTVSS
VL: DIQMTQSPSSLSASVGDRVTITCRASQGISSALAWYQQKPGKAPKLLIYAASALQSGVPSRFSGSGSGTDFTLTISSLQPEDFATYYCQQTYSTPRTFGPGTKVDIKR
notes: Fab chains as crystallised (heavy chain with hexa-histidine tag); also called 004S-E050
B2: binds [2]; binds (Fzd5).

B3: 4A12 Fab (Fab, V domains shown)
VH: QVQLQQSGPELVKPGASVKLSCKASGYTFTNYDINWVKQRPGQGLEWIGWIYPRDGSTKYNEKFKGKATLTVDTSSSTAYMELHSLTSEDSAVYFCVRSAWGFAYWGQGTLVTVSA
VL: DIVMTQSHKFMSTSVGDRVSITCKASQDVGTAVAWYQQKPGQSPKLLIYWASTRHTGVPDRFTGSGSGTDFTLTINNVQSEDLADYFCQQYSTYPLTFGAGTKLELKR
notes: as for B1
B3: binds [2].

B4: 029S-E03 Fab (Fab, V domains shown)
VH: QVQLVQSGAEVKKPGASVKVSCKASGYTFTGYYMHWVRQAPGQGLEWMGWINPNSGNTGYAQKFQGRVTMTRDTSTSTVYMELSSLRSEDTAVYYCARSYYGVIDAFDIWGQGTMVTVSS
VL: DIQMTQSPSSLSASVGDRVTITCRASQSISSYLNWYQQKPGKAPKLLIYAASSLQTGVPSRFSGSGSGTDFTLTISSLQPEDFATYYCQQSFRLPLTFGQGTKVEIKR
notes: as for B1
B4: binds [3].

B5: 004S-E09 (antibody, V domains shown)
VH: QVQLVQSGAEVKKPGASVKVSCKASGDTFSNYVISWVRQAPGQGLEWMGRISAYNGYKSYAQNFQGRVTMTRDTSTSTVYMELSSLRSEDTAVYYCARSSGYVGWFDPWGQGTLVTVSS
VL: not shown
B5: binds (Frizzled 6).

B6: 029S-E03 (Fab, V domains shown)
VH: B4 VH
VL: B4 VL
B6: binds (Frizzled 3).

B7: 001S-E02 (Fab, V domains shown)
VH: QVQLQESGPGLVKPSETLSLTCTVSGGSISGNNYYWGWIRQPPGKGLEWIGSIYFTGGTYYNPSLKSRVTISVDTSKNQFSLKLSSVTAADTAVYYCARVMLITDAFDIWGQGTMVTVSS
VL: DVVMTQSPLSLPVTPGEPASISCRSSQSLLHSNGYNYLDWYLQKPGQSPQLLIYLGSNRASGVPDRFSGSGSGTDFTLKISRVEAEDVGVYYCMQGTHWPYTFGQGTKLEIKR
For B7, the Kd [4] was 100 to 2000 nM, the Kd [5] was less than 100 nM and the Kd [6] was less than 100 nM.

B8: 001S-A04 (Fab, V domains shown)
VH: EVQLVQSGAEVKKPGASVKVSCKASGYTFTSYGISWVRQAPGQGLEWMGWISAYNGNTNYAQKLQGRVTMTTDTSTSTAYMELRSLRSDDTAVYYCASSKEKATYYYGMDVWGQGTTVTVSS
VL: QAVVLQEPSLSVSPGGTVTLTCGLSSGSVSTNYYPSWYQQTPGQAPRTLIYYTNTRSSDVPERFSGSIVGNKAALTITGAQPDDESVYFCLLYLGRGIWVFGGGTKLTVLG
notes: also called R2M3; WT
With B8 the Kd [5] was less than 100 nM, the Kd [6] was less than 100 nM and the Kd [7] was less than 100 nM. For the same binder, the KD [8] was no more than 100 nM.

B9: 001S-A04 mutant VHY8A (Fab, V domains shown)
VH: B8 VH with Y106A
VL: B8 VL
B9: no binding (tested: 1000 nM) [9].

B10: R2M9 (003S-E07) Fab (Fab, V domains shown)
VH: B1 VH
VL: not shown
notes: heavy chain entry ends in GSGSG-His6
B10: binds [10]; binds [11].
